{"source": "patent US20210380710A1", "key": {"[1]": {"target": "human CD20 on the cell surface (Raji, Ramos, Namalwa cells) (human) (UniProt P11836)", "sequence (P11836 whole entry)": "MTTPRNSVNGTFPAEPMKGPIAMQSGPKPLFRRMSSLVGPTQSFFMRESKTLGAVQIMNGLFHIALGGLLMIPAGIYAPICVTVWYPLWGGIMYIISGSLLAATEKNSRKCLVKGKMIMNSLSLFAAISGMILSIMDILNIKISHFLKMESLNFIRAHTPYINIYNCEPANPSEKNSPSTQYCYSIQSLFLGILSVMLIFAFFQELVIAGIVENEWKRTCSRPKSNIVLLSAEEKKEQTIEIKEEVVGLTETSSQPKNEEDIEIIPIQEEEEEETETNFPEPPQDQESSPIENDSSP", "assay": "flow cytometry on Raji cells"}, "[2]": {"target": "human CD3 on the cell surface (Jurkat cells) (human) (UniProt P07766)", "sequence (P07766 23-207, chain 1 of 3)": "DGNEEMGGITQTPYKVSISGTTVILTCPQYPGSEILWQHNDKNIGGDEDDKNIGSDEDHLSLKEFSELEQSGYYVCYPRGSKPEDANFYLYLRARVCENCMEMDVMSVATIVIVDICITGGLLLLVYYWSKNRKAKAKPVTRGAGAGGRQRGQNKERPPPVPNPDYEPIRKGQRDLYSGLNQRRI", "sequence (P04234 22-171, chain 2 of 3, further chain)": "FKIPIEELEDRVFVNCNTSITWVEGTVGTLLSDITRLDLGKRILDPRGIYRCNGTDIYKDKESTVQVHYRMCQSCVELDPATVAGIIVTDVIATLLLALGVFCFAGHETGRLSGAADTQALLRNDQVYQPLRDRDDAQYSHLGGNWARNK", "sequence (P09693 23-182, chain 3 of 3, further chain)": "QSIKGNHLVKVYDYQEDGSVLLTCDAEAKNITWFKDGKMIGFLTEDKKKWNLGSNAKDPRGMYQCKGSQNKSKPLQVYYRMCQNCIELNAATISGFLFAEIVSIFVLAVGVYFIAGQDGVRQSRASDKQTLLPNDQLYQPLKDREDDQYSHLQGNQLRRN", "assay": "flow cytometry on Jurkat cells"}, "[3]": {"target": "human CD20 on the cell surface (Raji, Ramos, Namalwa cells) (human) (UniProt P11836)", "assay": "FACS affinity on Ramos cells, FITC bead quantitation"}, "[4]": {"target": "human CD3 on the cell surface (Jurkat cells) (human) (UniProt P07766)", "assay": "FACS affinity on Jurkat cells, FITC bead quantitation", "parameters": "Bmax: unit not given here"}, "[5]": {"target": "human CD20 on the cell surface (Raji, Ramos, Namalwa cells) (human) (UniProt P11836)", "assay": "cell-based or functional assay"}, "[6]": {"target": "PD-1.his (Homo sapiens (Human)) (UniProt Q15116)", "sequence (Q15116 25-170 limits assumed)": "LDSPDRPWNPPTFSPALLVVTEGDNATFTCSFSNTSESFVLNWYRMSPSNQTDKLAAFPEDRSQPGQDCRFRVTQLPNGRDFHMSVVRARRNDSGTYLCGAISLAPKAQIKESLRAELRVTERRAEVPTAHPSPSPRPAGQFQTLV", "assay": "ELISA, antigen coated at 2 ug/mL, antibody 10 ug/ml; * specific binding"}, "[7]": {"target": "human CD3 on the cell surface (Jurkat cells) (human) (UniProt P07766)", "assay": "flow cytometry on Hut78 cells (target on Hut78 not given), antibody 10 ug/ml"}, "[8]": {"target": "human CD20 on the cell surface (Raji, Ramos, Namalwa cells) (human) (UniProt P11836)", "assay": "flow cytometry on Ramos cells, antibody 10 ug/ml"}, "[9]": {"target": "human CD20 on the cell surface (Raji, Ramos, Namalwa cells) (human) (UniProt P11836)", "assay": "flow cytometry on Raji cells, antibody 10 ug/ml"}, "[10]": {"target": "human CD3 on the cell surface (Jurkat cells) (human) (UniProt P07766)", "assay": "flow cytometry on Jurkat cells, antibody 10 ug/ml"}, "[11]": {"target": "human CD3 on the cell surface (Jurkat cells) (human) (UniProt P07766)", "assay": "flow cytometry on Hut78 cells (target on Hut78 not given), secondary antibody alone"}, "[12]": {"target": "human CD20 on the cell surface (Raji, Ramos, Namalwa cells) (human) (UniProt P11836)", "assay": "flow cytometry on Raji cells, secondary antibody alone"}, "[13]": {"target": "human CD20 on the cell surface (Raji, Ramos, Namalwa cells) (human) (UniProt P11836)", "assay": "flow cytometry on Ramos cells, secondary antibody alone"}, "[14]": {"target": "human CD3 on the cell surface (Jurkat cells) (human) (UniProt P07766)", "assay": "flow cytometry on Jurkat cells, secondary antibody alone"}}, "note": "pEC50, pKd: −log10 of the molar value."}
{"substance": "BMK4 (REGN1979) (bispecific antibody)", "values": [{"measurement": "pEC50", "setting": "[1]", "result": 7.39}, {"measurement": "pEC50", "setting": "[2]", "result": 8.06}, {"measurement": "Bmax", "setting": "[3]", "result": "6.8e-10"}, {"measurement": "pKd", "setting": "[3]", "result": 7.17}, {"measurement": "Bmax", "setting": "[4]", "result": "1.1e-10"}, {"measurement": "pKd", "setting": "[4]", "result": 7.52}, {"measurement": "EC50 of T cell activation (CD25 expression), CD4+ cells, in the presence of Raji cells", "setting": "[5]", "result": 6, "unit": "pM"}, {"measurement": "EC50 of T cell activation (CD25 expression), CD8+ cells, in the presence of Raji cells", "setting": "[5]", "result": 18.3, "unit": "pM"}, {"measurement": "EC50 of bispecific antibody mediated cytotoxicity, NAMALWA, 4 hours FACS based cytotoxicity assay with CD8+ T cells", "setting": "[5]", "result": 31.8, "unit": "pM"}, {"measurement": "EC50 of bispecific antibody mediated cytotoxicity, NAMALWA, two hour calcein release assay with CD8+ T cells", "setting": "[5]", "result": 26, "unit": "pM"}, {"measurement": "EC50 of bispecific antibody mediated cytotoxicity, Raji, 4 hours FACS based cytotoxicity assay with CD8+ T cells", "setting": "[5]", "result": 3.12, "unit": "pM"}, {"measurement": "EC50 of bispecific antibody mediated cytotoxicity, Raji, two hour calcein release assay with CD8+ T cells", "setting": "[5]", "result": 2.69, "unit": "pM"}, {"measurement": "EC50 of bispecific antibody mediated cytotoxicity, Ramos, two hour calcein release assay with CD8+ T cells", "setting": "[5]", "result": 1.49, "unit": "pM"}]}
{"substance": "Human IgG4K control (antibody)", "values": [{"measurement": "absorbance at 450 nm", "setting": "[6]", "result": 3.87}, {"measurement": "FACS MFI", "setting": "[7]", "result": 61}, {"measurement": "FACS MFI", "setting": "[8]", "result": 68}, {"measurement": "FACS MFI", "setting": "[9]", "result": 92}, {"measurement": "FACS MFI", "setting": "[10]", "result": 25}]}
{"substance": "Human IgG4L control (antibody)", "values": [{"measurement": "FACS MFI", "setting": "[7]", "result": 38}, {"measurement": "FACS MFI", "setting": "[8]", "result": 63}, {"measurement": "FACS MFI", "setting": "[10]", "result": 22}]}
{"substance": "goat anti-human IgG Fc-PE (Jackson, 109-115-098) (antibody)", "values": [{"measurement": "FACS MFI", "setting": "[11]", "result": 28}, {"measurement": "FACS MFI", "setting": "[12]", "result": 67}, {"measurement": "FACS MFI", "setting": "[13]", "result": 65}, {"measurement": "FACS MFI", "setting": "[14]", "result": 21}]}
